# Read-outs that look alike come from different tables or passages of the source.
# B1: H1H7269P (antibody, human IgG1, V domains shown)
# VH: QVQLVESGGGLVQPGRSLRLSCAASGFKFDDYTMHWVRQGPGKGLEWVSDISWSGGSIDYTDSVKGRFSISRDNAKNSLYLQMNSLRVEDTALYYCVKDKSGYGKYSYGLDVWGQGTTVTVSS
# VL: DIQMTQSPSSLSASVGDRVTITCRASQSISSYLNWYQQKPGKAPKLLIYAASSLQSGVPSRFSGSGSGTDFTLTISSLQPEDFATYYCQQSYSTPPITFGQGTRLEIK
# notes: Monovalent 1-arm format: second Fab removed, only the Fc portion (CH2-CH3) expressed; human IgG1 Fc; tied by the numerical identifier; also called H1H7269B
# B2: H1H7223P (antibody, human IgG1, V domains shown)
# VH: QVQLVESGGGLVQPGRSLRLSCAASGFTFADYTMHWVRQAPGKGLEWVSDISWNSGSMGYADSVKGRFTISRDNAKKSLYLQMNSLRTEDTALYYCAKDGSGYGKYFFYAMDVWGQGTTVTVSS
# VL: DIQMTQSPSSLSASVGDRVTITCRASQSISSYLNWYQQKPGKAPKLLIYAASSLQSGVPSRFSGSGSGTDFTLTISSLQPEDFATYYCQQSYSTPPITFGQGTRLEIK
# notes: Monovalent 1-arm format: second Fab removed, only the Fc portion (CH2-CH3) expressed; human IgG1 Fc; tied by the numerical identifier; also called H1H7223B
# B3: H1H7232P (antibody, human IgG1, V domains shown)
# VH: EVQLVESGGGLVHPGRSLRLSCAASGFTFDDYTMHWVRQAPGKGLEWVSDISWNSGSRGYADSVKGRFTISRDNAENSLYLQMNSLRAEDTALYYCAKDKSGYGHYYYYAMDVWGQGTTVTVSS
# VL: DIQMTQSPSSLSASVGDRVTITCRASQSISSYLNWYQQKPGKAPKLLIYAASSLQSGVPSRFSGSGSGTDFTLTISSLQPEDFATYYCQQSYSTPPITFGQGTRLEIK
# notes: Monovalent 1-arm format: second Fab removed, only the Fc portion (CH2-CH3) expressed; human IgG1 Fc; tied by the numerical identifier; also called H1H7232B
# B4: H1H7203P (antibody, human IgG1, V domains shown)
# VH: EVQLVQSGGGLVQPGRSLRLSCAASGFTFADYTMHWVRQTPGKGLEWVSGISWNSGSKDYADSVKGRFTISRDNAKNSLYLQMNSLRTEDTALYYCAKYGSGYGRYFFYAMDVWGQGTTVTVSS
# VL: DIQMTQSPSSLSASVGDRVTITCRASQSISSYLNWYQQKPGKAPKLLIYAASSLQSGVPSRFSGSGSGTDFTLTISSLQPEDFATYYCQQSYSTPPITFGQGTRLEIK
# notes: Monovalent 1-arm format: second Fab removed, only the Fc portion (CH2-CH3) expressed; human IgG1 Fc; tied by the numerical identifier; also called H1H7203B
# B5: H1H7233P (antibody, human IgG1, V domains shown)
# VH: EVQLVESGGGLVQPGGSLRLSCEASGFTFADYTLHWVRQAPGKGLEWVSDISWNSGTRGYADSVRGRFTISRDNAKKSLYLQMNSLRSEDTALYYCVKDGSGYGRYNFYAMDVWGQGTTVTVSS
# VL: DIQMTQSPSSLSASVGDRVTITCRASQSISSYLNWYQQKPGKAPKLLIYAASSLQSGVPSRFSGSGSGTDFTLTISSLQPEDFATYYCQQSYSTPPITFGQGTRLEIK
# notes: Monovalent 1-arm format: second Fab removed, only the Fc portion (CH2-CH3) expressed; human IgG1 Fc; tied by the numerical identifier; also called H1H7233B
# B6: H1H7211P (antibody, human IgG1, V domains shown)
# VH: EVQLVESGGGLVHPGRSLRLSCTASGFKFADYTMHWVRQAPGKGLEWVSDISWNSGSKGYADSVKGRFTISRDNDKNSLYLQMNSLRGEDTALYYCAKDGSGYGRFHFYAIDVWGQGTTVTVSS
# VL: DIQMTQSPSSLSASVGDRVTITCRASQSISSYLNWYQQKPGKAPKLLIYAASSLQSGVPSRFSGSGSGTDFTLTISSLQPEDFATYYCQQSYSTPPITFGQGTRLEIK
# notes: Monovalent 1-arm format: second Fab removed, only the Fc portion (CH2-CH3) expressed; human IgG1 Fc; tied by the numerical identifier; also called H1H7211B
# B7: H1H7226P (antibody, human IgG1, V domains shown)
# VH: EVQLVQSGGGLVQPGRSLRLSCAASGFTFSDYTMHWVRQGPGKGLEWVSDISWNSGSKGYTDSVKGRFTISRDNAKKSLYLQMNSLRAEDTALYYCVKDGSGYGKYHFYAMDVWGQGTLVTVSS
# VL: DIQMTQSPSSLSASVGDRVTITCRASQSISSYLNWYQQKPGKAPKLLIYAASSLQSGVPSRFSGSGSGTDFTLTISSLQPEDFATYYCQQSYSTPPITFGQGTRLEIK
# notes: Monovalent 1-arm format: second Fab removed, only the Fc portion (CH2-CH3) expressed; human IgG1 Fc; tied by the numerical identifier; also called H1H7226B
# B8: H1H7198P (antibody, human IgG1, V domains shown)
# VH: EVQLVESGGGLVQPGRSLRLSCAASGFTFADYTMHWVRQVPGKGLEWVSDISWNSGSKDYADSVKGRFTISRDNAKNFLYLQMNSLRAEDTALYYCVKYGSGYGKFYFYAMDVWGQGTTVTVSS
# VL: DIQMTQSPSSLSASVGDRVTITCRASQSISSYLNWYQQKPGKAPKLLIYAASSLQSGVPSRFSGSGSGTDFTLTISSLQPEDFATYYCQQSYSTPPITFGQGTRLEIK
# notes: Monovalent 1-arm format: second Fab removed, only the Fc portion (CH2-CH3) expressed; human IgG1 Fc; tied by the numerical identifier; also called H1H7198B
# B9: H1H5790B (antibody, human IgG1, V domains shown)
# VH: EVQLVESGGGVVQPGRSLRLSCAASGFTFSYYGMHWVRQAPGKGLEWVAVISFDGKNKYYADSVMGRFTISRDNSKNTLYLQMNSLRAEDSAVFFCARSYDILTGYGAGYSYHYGMDVWGQGTTVTVSS
# VL: AIQMTQSPSSLSASVGDRVTITCRASQRISSFLNWYQQKPGKAPKLLIYTASNLQNGVPSRFSGSGSGTDFTLTISSLQPEDFATYYCQQSYRTPLTFGGGTKVEIKR
# notes: H1H: human IgG1 Fc
# B10: H1H5792B (antibody, human IgG1, V domains shown)
# VH: QVQLVESGGGVVQPGRSLRLSCAASGFTFSSYGMHWVRQAPGKGLEWVSTISFDGSNKYYADSVKGRFTISRDNSKNTLYLQMNSLRPEDTAVYYCAKGGGTSGSYFYYGMDVWGQGTTVTVSS
# VL: AIQMTQSPSSLSASVGDRVTITCRASQRISSFLNWYQQKPGKAPKLLIYTASNLQNGVPSRFSGSGSGTDFTLTISSLQPEDFATYYCQQSYRTPLTFGGGTKLEIKR
# notes: H1H: human IgG1 Fc
# B11: H1H5795B (antibody, human IgG1, V domains shown)
# VH: EVQLVESGAEVKKPGASVKVSCKTSGYSFIGYYIHWMRQAPGQGLEWMGWINPKSGVTNYAQRFQGRVTMTRDTSISTAYMELSRLKSDDTAVYFCARMGDGAVFDFWGQGTLVTVSS
# VL: DIQLTQSPSSLSASVGDRVTITCRASQRISSFLNWYQQKPGKVPKLLIYTASNLQNGVPSRFSGTGSGTDFTLTISSLQPEDFATYYCQQSYRTPLTFGGGTKVDIKR
# notes: H1H: human IgG1 Fc
# B12: H1H5798B (antibody, human IgG1, V domains shown)
# VH: QVQLVQSGGGLVKPGGSLRLSCAASGFTFSSYDMSWVRQAPGKGLEWVSYISSSGNTIHYADSVKGRFTISRDNSKNSLYLQMNSLRAEDTAVYYCAKAGPATVTRRYYYYYGLDVWGQGTTVTVSS
# VL: DIVMTQSPSSLSASVRDRVTITCRASQRISSYLNWFQQKPGKAPKVLIYTASSLQNGVPSRFSGSGSGTDFTLTISSLQPEDFATYYCQQSYRTPLTFGGGTKVEIKR
# notes: H1H: human IgG1 Fc
# B13: H1H5801B (antibody, human IgG1, V domains shown)
# VH: QVQLVQSGGGVVQPGGSLRLSCAASGFTFDDYAMHWVRQAPGKGLEWVSLISGDGGSTYYADSVKGRFTISRDNSKNSLYLQMNSLRTEDTALYYCAKDDSSSSWYYYYYGMDVWGRGTTVTVSS
# VL: DIQMTQSPSSLSASVGDRVTITCRASQRISSYLNWYQQKPGKAPKVLISVASSLQSGVPSRFSGSGSGTDFTLTISSLQPEDFASYYCQQSYNTPLTFGGGTKVEIKR
# notes: H1H: human IgG1 Fc
# B14: H1H7204P (antibody, human IgG1, V domains shown)
# VH: EVQLVESRGALVQPGRSLRLSCAASGFAFNDYTMHWVRQAPGKGLEWVSDISWNSNSKDYADSVKGRFTISRDNAKNSLYLQMNSLRAEDTALYYCVKDGSGYGKFSLYALDVWGQGTTVTVSS
# VL: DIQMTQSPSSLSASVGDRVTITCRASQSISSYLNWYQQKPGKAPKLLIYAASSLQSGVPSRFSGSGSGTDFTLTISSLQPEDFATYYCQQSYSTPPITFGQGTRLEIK
# notes: Monovalent 1-arm format: second Fab removed, only the Fc portion (CH2-CH3) expressed; human IgG1 Fc; tied by the numerical identifier; also called H1H7204B
# B15: H1H5793B (antibody, human IgG1, V domains shown)
# VH: QVQLVQSGTEVKKPGASMKVSCKASGYTFTGYYIHWVRQAPGQGLEWMGWINPNSDVTKYAQKFQGRVTLTRDTSISAAYIDLSRLRSDDTAIYYCARMGDGAVFDYWGQGTLVTVSS
# VL: DIQLTQSPSSLSASVGDRVTITCRASQRISSYLNWYQQKPGKAPKVLISVASSLQSGVPSRFSGSGFGTDFTLTISSLQPEDSASYYCQQSYNTPLTFGGGTKLEIKR
# notes: H1H: human IgG1 Fc
# B16: H1H5797B (antibody, human IgG1, V domains shown)
# VH: QVQLVQSGTEVKKPGASVKVSCKASGYTFTGYYMHWVRQAPGQGLEWMGWINPNSDVTNYAQKFQGRVTLTRDTSISTAYIDLSRLRSDDTAIYYCARMGDGAVFDYWGQGTLVTVSS
# VL: DIQMTQSPSSLSASVGDRVTITCRASQRISSYLNWYQQKPGKAPKVLISVASSLQSGVPSRFSGSGSGTDFTLTISSLQPEDFASYYCQQSYNTPLTFGGGTKVEIKR
# notes: H1H: human IgG1 Fc
# B17: H1H7208P (antibody, human IgG1, V domains shown)
# VH: QVQLVESGGGLVHPGRSLRLSCAASGFKFDDYTMHWVRQAPGKGLEWVSDISWNSGSKGYADSVKGRFTISRDNAKDSLYLQMDSLRAADTAFYYCAKDKSGYGHFYYYAMDVWGQGTTVTVSS
# VL: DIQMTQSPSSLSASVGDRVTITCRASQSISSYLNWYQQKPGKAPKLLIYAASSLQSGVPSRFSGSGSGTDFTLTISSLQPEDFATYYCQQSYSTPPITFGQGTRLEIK
# notes: Monovalent 1-arm format: second Fab removed, only the Fc portion (CH2-CH3) expressed; human IgG1 Fc; tied by the numerical identifier; also called H1H7208B
# Tests used:
# [1] = molecular target: T1, human CD3 expressed on cells (Jurkat cells; human T-cells of PBMC) (human, UniProt P09693 23-182; P20963 22-164); experiment: cell-based or functional assay
# [2] = molecular target: T1, human CD3 expressed on cells (Jurkat …); experiment: cell-based or functional assay; remark: listed apart in the source
# [3] = molecular target: T1, human CD3 expressed on cells (Jurkat …); experiment: FACS titration on Jurkat cells, monovalent 1-arm antibody
# Description: (§1) FACS data was acquired using the following protocol: Cells at 2×10⁵ per well were incubated with serially diluted antibodies for 30 min on ice. Post incubation, cells were washed and secondary antibody was added and incubated for an additional 30 minutes. After incubation, cells were washed, re-suspended in cold PBS containing 1% BSA and analyzed by flow cytometry with viable Jurkat cells gated by side and forward scatters. The EC₅₀s for cell binding titration were determined using Prism software with values calculated using a 4-parameter non-linear regression analysis.
# [4] = molecular target: cynomolgus monkey CD3 expressed on monkey T-cells (PBMCs) (cynomolgus monkey, UniProt Q95LI5 22-198; Q95LI8 22-171); experiment: cell-based or functional assay
# [5] = molecular target: T1, human CD3 expressed on cells (Jurkat …); experiment: cell-based or functional assay; remark: listed apart in the source
# [6] = molecular target: T1, human CD3 expressed on cells (Jurkat …); experiment: cell-based or functional assay; remark: listed apart in the source
# [7] = molecular target: T1, human CD3 expressed on cells (Jurkat …); experiment: FACS titration on Jurkat cells (CD3+ human T-cell line)
# Description: as §1
# T1 sequence (chain, as listed by the source, chain 1 of 4): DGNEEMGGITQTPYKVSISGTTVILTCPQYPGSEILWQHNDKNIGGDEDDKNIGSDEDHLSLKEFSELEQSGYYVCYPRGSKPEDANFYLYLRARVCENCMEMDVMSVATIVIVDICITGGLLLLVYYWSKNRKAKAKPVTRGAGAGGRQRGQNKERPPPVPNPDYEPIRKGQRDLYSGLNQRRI
# T1 sequence (chain, as listed by the source, chain 2 of 4): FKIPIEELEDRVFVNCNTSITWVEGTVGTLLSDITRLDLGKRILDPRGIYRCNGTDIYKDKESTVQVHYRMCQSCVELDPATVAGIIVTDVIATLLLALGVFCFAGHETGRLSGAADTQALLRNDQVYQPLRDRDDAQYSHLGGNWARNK
# T1 sequence (P09693 23-182, chain 3 of 4): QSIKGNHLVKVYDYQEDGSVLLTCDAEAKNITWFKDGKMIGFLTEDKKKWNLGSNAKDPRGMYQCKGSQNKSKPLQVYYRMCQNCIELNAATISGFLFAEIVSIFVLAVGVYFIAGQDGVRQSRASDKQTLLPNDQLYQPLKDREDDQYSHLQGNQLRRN
# T1 sequence (P20963 22-164, chain 4 of 4): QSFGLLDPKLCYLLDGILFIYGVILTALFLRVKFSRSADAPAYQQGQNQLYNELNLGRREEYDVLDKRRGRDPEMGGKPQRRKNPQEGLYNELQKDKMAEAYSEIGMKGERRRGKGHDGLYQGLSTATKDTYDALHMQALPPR
# cynomolgus monkey CD3 expressed on monkey T-cells (PBMCs), sequence (Q95LI5 22-198, chain 1 of 2): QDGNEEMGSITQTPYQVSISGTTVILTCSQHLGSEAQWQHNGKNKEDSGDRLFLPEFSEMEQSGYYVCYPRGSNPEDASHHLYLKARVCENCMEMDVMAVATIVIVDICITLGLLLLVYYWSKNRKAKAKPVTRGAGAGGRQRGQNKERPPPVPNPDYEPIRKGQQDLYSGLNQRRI
# cynomolgus monkey CD3 expressed on monkey T-cells (PBMCs), sequence (Q95LI8 22-171, chain 2 of 2): as the sequence (chain, as listed by the source, chain 2 of 4) above, with I5V, N15K, I20V, S32T, D33N, I34N, T64A, S74N, V83L, H141R counted along it
Binder,EC50 [M] hPBMC Proliferation [1] [M],U937 Cytotoxicity Human T-cells [2] [pM],EC50 [3] [nM],EC50 [M] mfPBMC Proliferation [4] [M],EC50 [M] hPBMC Proliferation [5] [M],U937 Cytotoxicity Human T-cells [6] [pM],EC50 [7] [nM]
B1,1.15e-12,10.8,1.95,–,–,–,–
B2,1.07e-12,5.3,0.937,6.75e-11,–,–,–
B3,1.03e-12,9.96,1.5,4.9e-11,–,–,–
B4,1.64e-12,5.47,3.24,4.97e-13,–,–,–
B5,7.34e-13,11.9,0.715,4.35e-12,–,–,–
B6,2.75e-12,7.89,0.701,2.81e-13,–,–,–
B7,9.52e-13,10.4,0.795,2.26e-11,–,–,–
B8,2.55e-12,5.21,0.726,2.29e-12,–,–,–
B9,–,–,–,–,2.71e-12,87.1,3.55
B10,–,–,–,–,6.47e-12,140,5.87
B11,–,–,–,–,3.09e-12,67.4,2.04
B12,–,–,–,–,2.59e-12,181,5.57
B13,–,–,–,–,1.09e-12,92.3,15.5
B14,1.51e-12,10.8,2.29,1.26e-11,–,–,–
B15,–,–,–,–,3.28e-12,88.5,4.62
B16,–,–,–,–,1.07e-11,576,39.6
B17,1.46e-12,45.9,51.9,7.02e-12,–,–,–
